According to the DeepSol protein solubility set:

Test: soluble on expression in E. coli; label from the status in PepcDB or PDB records

Sequence	soluble on expression in E. coli
MTQTNRVIIFDTTLRDGEQSPGAAMTKEEKIRVARQLEKLGVDIIEAGFAAASPGDFEAVNAIAKTITKSTVCSLSRAIERDIRQAGEAVAPAPKKRIHTFIATSPIHMEYKLKMKPKQVIEAAVKAVKIAREYTDDVEFSCEDALRSEIDFLAEICGAVIEAGATTINIPDTVGYSIPYKTEEFFRELIAKTPNGGKVVWSAHCHNDLGLAVANSLAALKGGARQVECTVNGLGERAGNASVEEIVMALKVRHDLFGLETGIDTTQIVPSSKLVSTITGYPVQPNKAIVGANAFSHESGIHQDGVLKHRETYEIMSAESVGWATNRLSLGKLSGRNAFKTKLADLGIELESEEALNAAFARFKELADKKREIFDEDLHALVSDEMGSMNAESYKFISQKISTETGEEPRADIVFSIKGEEKRASATGSGPVDAIFKAIESVAQSGAALQIYSVNAVTQGTESQGETSVRLARGNRVVNGQGADTDVLVATAKAYLSALSKLEFSAAKPKAQGSGTI	not soluble
MSYQGRARKFLESASIDVGDMVLVEKPDVTYEGMVLDRADDADDRHIVLKLENGYNIGVEISDARIELLEKGSEPRIELPPVEAAEDPELPDVSIISTGGTVASIIDYRTGAVHPAFTADDLLRANPELLDIANIRGRAVFNILSENMKPEYWVETARAVYGEIKDGADGVVVAHGTDTMHYTSAALSFMLRTPVPVVFTGAQRSSDRPSSDASLNIQCSVRAATSEIAEVTVCMHATMDDLSCHLHRGVKVRKMHTSRRDTFRSMNALPLAEVTPDGIKILEENYRKRGSDELELSDRVEERVAFIKSYPGISPDIIKWHLDEGYRGIVIEGTGLGHCPDTLIPVIGEAHDMGVPVAMTSQCLNGRVNMNVYSTGRRLLQAGVIPCDDMLPEVAYVKMCWVLGQTDDPEMAREMMRENIAGEINERTSIAYFRG	soluble
GDSFYIRTHFEYEKESPYGLSFNKGEVFRVVDTLYNGKLGSWLAIRIGKNHKEVERGIIPNKNRAEQLASVQYVQTKFPAYERVVLREAGFLRPVTIFGPIADVAREKLAREEPDIYQIAKSEPRDAGTDQRSSGIIRLHTIKQIIDQDKHALLDVTPNAVDRLNYAQWYPIVVFLNPDSKQGVKTMRMRLCPESRKSARKLYERSHKLRKNNHHLFTTTINLNSMNDGWYGALKEAIQQQQNQLVWVSEG	soluble
GSPEFKTIDASVSKKAADSTSQCGKATGSDSSGVIDLTMDDEESGASQD	soluble
MPGSRTYRKVDPPDVEQLGRSSWTLLHSVAASYPAQPTDQQKGEMKQFLNIFSHIYPCNWCAKDFEKYIRENAPQVESREELGRWMCEAHNKVNKKLRKPKFDCNFWEKRWKDGWDE	not soluble
MGSDKIHHHHHHMLSTTNLTMQFGAKALFENVSVEFGNGNRYGLIGANGSGKTTLMKILGGDLEPSSGHVSLSSGERLGKLRQDQFAFEECTVLDTVIMGHAELWRVKQERDRLYALPEMTDEEGMAVAHVEVEFAELGGYAAESRAGELLSGVGIPLEQHSGLMSAVSPGWKLRVLLAQALFADPDILLLDEPTNNLDIHTIQWLEELISNLNSTVIIISHDRHFLNSVCTHMADLDYGELRIYPGNYDEYMQASTLVRDQLLADNDKKKEKMAELQGFVSRFSANASKAKQATSRARQLEKIQLAEVKPSSRQNPYLVFNQERKLYRNALDGKDLSKSFGDLRLFHKMRLHVEAGERIAIIGSNGLGKTTLLRCLMGELTTDAGEIKWAENARIGYFAQDYAPEFAEDMTLFDWMCQWRGERDDDQVIRGVLGRLLFGQDQVNRSVKVLSGGEKGRMLFGKLTLQKPNVLILDEPTNHLDMESIESLNSALEKYDGTLLFVSHDRAFVSSLATRIIEFTPRGIQDFKGTYEDYLRSQGMG	not soluble
MAHHHHHHMSHYLLVTFTFNCPEIRILGPIKEQTIEKLNDVIPNATTTSRSNRTALPKFEYLPNPNHWYIKLDRQFCDEDGKSHLMVLLLDALSEEGSWRLVSSFVTKEPSGTGSKEGTETHTLFLNKLLAEDS	soluble
MNYTTEFKLGTDGLDVVPGATNTFEMPEGVIPSANATVYFYSGGMPESATANYTGAGNLWSFTSTNGIDSSAGAIRVEITQGRNFGDDPGLVTATATTRAWNEPPLVTVDQSVSGETKFAFSIPVGKPGNDGISAYAQAHAQGFNGSVDDWLESLRGANGKSAYELAVTQGFQGSSADWLNSLKGATGKSAYEVAVAQGFTGALAEWVESLKGVAGKSAYDIALDAGYKGSHLDWLNSLKGGKGDKGDHGKSAYQVAFDAGFSGTEAEWLESLKAPSAPAVGGYKELANGVLWYCRPRYNTGRCTVPDTGWGAYDYETAEHTTKFVIEDGLFEDHGCYVVPDASNLPTDDLRLRMTRGVNRGIHHAGRMTNRSDLVPPYSATTSYFIDRWAAKFYGWYYVMLSPQESAQFLADTDLEKIEVDVQPVTFSGVDVTNWAPGGTETYFLAKEQGLLVPIYKGASRHTVSATGETIVALWFRVGVYTHRSNIGSDNHSFDGINGEPDGWNLHDVDVKFWSTNVAQGMKFSAKIRN	not soluble
MEDDHSKEMDRLRSQAAKVQSEKETFDRKRRETLEKHKKELDELEKKNKKEEDDLREQNMNLWNKNLDQQIALGNELNNKYTEISNQNSRLQIKIGQEEDIRVFKIKLLDVSKVWTDVKVNYQDYLRNTLDEHSNSNKSDVLKEIDTLIYNKEKLNEVLITAKKLLGKCQKFTTSDSFKVINDSLTELMRFKFEDDILIELKTIIKKNGSAEQSFLTKMDETIDKYNEMVNELPGLQLKSVEPIHQAAIQ	soluble
VTNVSWLVTGSMSALSIPGLIFSLRSSHPNLNFTPYLTQSASRIVTMTSMATLSGVTPRNSDWGSEPEATPSHIQIESESDAYLIAPATLDFLARFARYDCSTPFSLALQCTKKPILVAPS	not soluble
MGSDKIHHHHHHMKIKKGDTEAEILTKGAYLYSFKIGNRDMILRGDLERPTRGGMAILIPFANRVKNAEYVFEGVKYTLPQNREGNAIHGLVMDKEFNVIGKSEDSISLQYILEHEGYPSKLDCVITYKVFKYGLRIKIVVRNVGNKRAPLTVGAHPYFITADDWRIVVEKEESIKKCISFNKIPTGELVKTKLEHTDYDDCFLISGGIQLHSSYSKVRITRRNMPFVQIYTGVRGSIAIEPMSGAPDAYHNGLGLKILEPNESSYFAFAFRFH	not soluble
MATQHPIGKKTACVVGGTGFVASLLVKLLLQKGYAVNTTVRDPDNQKKVSHLLELQELGDLKIFRADLTDELSFEAPIAGCDFVFHVATPVHFASEDPENDMIKPAIQGVVNVMKACTRAKSVKRVILTSSAAAVTINQLDGTGLVVDEKNWTDIEFLTSAKPPTWGYPASKTLAEKAAWKFAEENNIDLITVIPTLMAGSSLTSDVPSSIGLAMSLITGNEFLINGMKGMQMLSGSVSIAHVEDVCRAHIFVAEKESASGRYICCAANTSVPELAKFLSKRYPQYKVPTDFGDFPPKSKLIISSEKLVKEGFSFKYGIEEIYDESVEYFKAKGLLQN	soluble
SLIHIAIVEDENKDRELLKEYLDRFQAEKGEPLFVHVYPDGEEFLESFSSGKFDILLLDIHMQYMNGMATAQEIRKSDENVLIIFITNLVQYAVQGYSVRAFDFIVKPVEYSVFAQKLYRATQRLNRTIHSCVRFKVLDQIVNLQLSGILYFEIVARKLFIYTDTEIYRCNDTLHSIEEKLNDGHFFRCHAGYLVNVAYVRSVGKDYAMVGSARIPVSKHRRKAFLDAIGNYLGSKEG	not soluble
MSLINRKDALPITRQCRLLDLSRSGFYYTPRPVSAKDLELMRQIDEIHLAFPFYGSRKIRDELWARKHNVGLDKVRRLMRRMGIEALYVKPRLSLSYPEHVKYPYLLRRLEINRANQVWITDITYIPMAKGFCYLVAIMDEGHHHHHH	not soluble
MTRTELTQYLADFLRVSAFKDYAPNGLQVEGKAEIRTIVTGVTACQALIDEAIRLKADAILVHHGFFWKSEPEVITGMKQRRIKALLAHDINLFGYHLPLDAHPMLGNNATLGRKLGILDAEAVEDVAQGLVWRGKLDLPMSASEFAAMLAEVLGRDPLHIGESSDEIQYLAWCTGGAQDYIDVAASLGVDAFISGEVSERTYHSAVEQGIHYYAAGHHATERFGIEALGRHLAREFNLVHHFVDITNPVLEHHHHHH	soluble
GYSQYNIHGNQFYNLGIDYAYRWHRFSFQGETAMGKQGSATLNRFQYSPVEGTQLMIVQRYYSYNYWAMFAHSFGEGSAVQNEQGYYLGVETSPFRYWHILASFDLFSFPWKKYRISKPSRGMDGLLQATFTPHNNLTMYLKYRYKQKERDLTGSKENLTLPIFHHQLRYRLNYFYGDVFSCRTTLDYNHFHSQDRAASKGYQVTQMMSSQLPWTRLFADVQGSYFSTDDYDSRVYVSEKGLLYTFYTPSFQGRGFRCAVRLRYEPNEHWMFITKFGETVYLDRNEIGSGNDLILGNKKADVQMQLRIKF	not soluble
MLLKLKCTVNNYAWGPKGNSSMAGSLALDGGHIPNLDKDKPYAEFWVGTHANGPAHVIEKDIALKQLLATSPELQGKHEKGNLSFLFKVLSVLGPLSIQIHPTKEQGKLLHATDPKNYPDDNHKPEIAIALTEFELLSGFRQHSQISEYLKLYSEIQELLTEEEKSQIDSLGSYGESSAQVLKKIFSRIWRTPKEKLQIVVDKLARRIQGHENKTALDEIIVYLFTLYPGDVGVFAPIFLNYFKLQPGEATFLEPNMPHAYLKGDCVECMADSDNTIRAGLTPKYIDVESLVEMLNYDETLLPKYIPNELDDGSLLFTPRGIDEFWVQEVKGPAGSIYQLPYSESCSVLTVLYGTATVTLGDASQVLNRGEVVFIGATHDAERPKINISDDFLAFRAFTPSPRALESLSNKRLIID	not soluble
MGLAASEALQGSEQEINSAFSNQITPVISGDYIVWQDERDGNWDIYMYDMSAGRTETSLFNGPKDEIEPAISGSRVVLADNRRGNYDIYMYDISTKKEVQVTSDKSEQKEPAISEDIIVWTDRRNQNTDIYMYDLTTKEETRITDDKADQSQPAVWGNIIVWKDTRNGNEDIYMYDISAGKESPVVMDSAAQTNPVIEGDYIVWEDRRAGNLDIYMYEISTGKEKPVCTDPSPQKTPAISDGRIVWADGRIKGTNIFIYDIATGQEKTVSTASEYESNPSIDGNRIVWQDKRKGAMDIFMFTEDASETESTAGEKTEAETGSKAPLGIYPVSAGVIAAYLMINSGKKGKRKTLEHHHHHH	not soluble
MGSDKIHHHHHHLTLRVAVIGSGPAGSSAAETLAASGIETYLFERKLDNAKPCGGAIPLCMVSEFDLPPEIIDRRVRKMKMISPSNREVDINLINEDEYIGMCRREVLDGFLRDRAAKLGANLINATVHKLDIPGNNTDPYTIHYVDHTEGISQGIAKTLKVDLIIGADGANSRVAKEMDAGDYNYAIAFQERIRLPEDKMAYYNDLAEMYVGDDVSTDFYAWVFPKYDHVAVGTGTMHINKASIKQLQAGIRARASEKLAGGKIIKVEAHPIPEHPRPRRVVGRIALVGDAAGYVTKSSGEGIYFAAKSGRMCAETIVEASNSGSRIPTEGDLKIYLKRWDKRYGLTYKVLDILQSVFYRSDATREAFVEMCDDLDVQRLTFDSYLYKTVVPANPITQLKITAKTIGSLIRGNALAP	not soluble
